In US20230106247A1 (L AND L BIO CO LTD NINGBO CHINA, published 2023):

B1: humanized antibody mab14-h14 (antibody, human IgG4 S228P, kappa, V domains shown)
VH: QVQLVQSGAEVKKPGASVKVSCKASGYNFNIYWINWVRQAPGQGLEWIGNIYPSSISTNYNEKFKTRATLTVDKSTSTVYMELSSLRSEDTAVYYCARSEGTYYGGRYEGDWFGYWGQGTLVTVSS
VL: DIQMTQSPSSLSASVGDRVTITCRASQDIRNYLNWYQQKPGGTPKLLIYFTSTLHSGVPSRFSGSGSGTDYTLTISSLQPEDFATYYCQQGNTLPWTFGGGTKVEIKR
notes: hIgG4, κ
B2: humanized antibody mab14-h11 (antibody, human IgG4 S228P, kappa, V domains shown)
VH: QVQLVQSGAEVKKPGASVKVSCKASGYNFNIYWINWVKQAPGQGLEWIGNIYPSSISTNYNEKFKTKATLTVDKSTSTVYMEFSSLRSEDTAVYYCARSEGTYYGGRYEGDWFGYWGQGTLVTVSS
VL: DIQMTQSPSSLSASVGDRVTITCRASQDIRNYLNWYQQKPGKTPKLLIYFTSTLHSGVPSRFSGSGSGTDYTLTISSLQPEDFATYYCQQGNTLPWTFGGGTKVEIKR
notes: hIgG4, κ
B3: humanized antibody mab14-h9 (antibody, human IgG4 S228P, kappa, V domains shown)
VH: QVQLVQSGAEVKKPGASVKVSCKASGYNFNIYWINWVKQAPGQGLEWIGNIYPSSISTNYNEKFKTKATLTVDKSTSTVYMEFSSLRSEDTAVYYCARSEGTYYGGRYEGDWFGYWGQGTLVTVSS
VL: DIQMTQSPSSLSASVGDRVTITCRASQDIRNYLNWYQQKPGGAPKLLIYFTSTLHSGVPSRFSGSGSGTDYTLTISSLQPEDFATYYCQQGNTLPWTFGGGTKVEIKR
notes: hIgG4, κ
B4: humanized antibody mab14-h2 (antibody, human IgG4 S228P, kappa, V domains shown)
VH: QVQLVQSGAEVKKPGASVKVSCKASGYNFNIYWINWVKQAPGQGLEWIGNIYPSSISTNYNEKFKTKATLTVDKSTSTVYMEFSSLRSEDTAVYYCARSEGTYYGGRYEGDWFGYWGQGTLVTVSS
VL: DIQMTQSPSSLSASVGDRVTITCRASQDIRNYLNWYQQKPGGTVKLLIYFTSTLHSGVPSRFSGSGSGTDYTLTISSLQPEDFATYYCQQGNTLPWTFGGGTKVEIKR
notes: hIgG4, κ
B5: humanized antibody mab14-h8 (antibody, human IgG4 S228P, kappa, V domains shown)
VH: QVQLVQSGAEVKKPGASVKVSCKASGYNFNIYWINWVKQAPGQGLEWIGNIYPSSISTNYNEKFKTKATLTVDKSTSTVYMEFSSLRSEDTAVYYCARSEGTYYGGRYEGDWFGYWGQGTLVTVSS
VL: DIQMTQSPSSLSASVGDRVTITCRASQDIRNYLNWYQQKPGGTPKLLIYFTSTLHSGVPSRFSGSGSGTDFTLTISSLQPEDFATYYCQQGNTLPWTFGGGTKVEIKR
notes: hIgG4, κ
B6: humanized antibody mab14-h12 (antibody, human IgG4 S228P, kappa, V domains shown)
VH: QVQLVQSGAEVKKPGASVKVSCKASGYNFNIYWINWVRQAPGQGLEWIGNIYPSSISTNYNEKFKTRATLTVDKSTSTVYMELSSLRSEDTAVYYCARSEGTYYGGRYEGDWFGYWGQGTLVTVSS
VL: DIQMTQSPSSLSASVGDRVTITCRASQDIRNYLNWYQQKPGGTPKLLIYFTSTLHSGVPSRFSGSGSGTDFTLTISSLQPEDFATYYCQQGNTLPWTFGGGTKVEIKR
notes: hIgG4, κ
B7: humanized antibody mab14-h3 (antibody, human IgG4 S228P, kappa, V domains shown)
VH: QVQLVQSGAEVKKPGASVKVSCKASGYNFNIYWINWVRQAPGQGLEWMGNIYPSSISTNYNEKFKTRATLTVDTSTSTVYMELSSLRSEDTAVYYCARSEGTYYGGRYEGDWFGYWGQGTLVTVSS
VL: DIQMTQSPSSLSASVGDRVTITCRASQDIRNYLNWYQQKPGGTVKLLIYFTSTLHSGVPSRFSGSGSGTDYTLTISSLQPEDFATYYCQQGNTLPWTFGGGTKVEIKR
notes: hIgG4, κ
B8: humanized antibody mab14-h10 (antibody, human IgG4 S228P, kappa, V domains shown)
VH: QVQLVQSGAEVKKPGASVKVSCKASGYNFNIYWINWVKQAPGQGLEWIGNIYPSSISTNYNEKFKTKATLTVDKSTSTVYMEFSSLRSEDTAVYYCARSEGTYYGGRYEGDWFGYWGQGTLVTVSS
VL: DIQMTQSPSSLSASVGDRVTITCRASQDIRNYLNWYQQKPGGTPKLLIYFTSTLHSGVPSRFSGSGSGTDYTLTISSLQPEDFATYYCQQGNTLPWTFGGGTKVEIKR
notes: hIgG4, κ
B9: humanized antibody mab14-h15 (antibody, human IgG4 S228P, kappa, V domains shown)
VH: QVQLVQSGAEVKKPGASVKVSCKASGYNFNIYWINWVRQAPGQGLEWIGNIYPSSISTNYNEKFKTRATLTVDKSTSTVYMELSSLRSEDTAVYYCARSEGTYYGGRYEGDWFGYWGQGTLVTVSS
VL: DIQMTQSPSSLSASVGDRVTITCRASQDIRNYLNWYQQKPGKTPKLLIYFTSTLHSGVPSRFSGSGSGTDYTLTISSLQPEDFATYYCQQGNTLPWTFGGGTKVEIKR
notes: hIgG4, κ
B10: humanized antibody mab14-h4 (antibody, human IgG4 S228P, kappa, V domains shown)
VH: QVQLVQSGAEVKKPGASVKVSCKASGYNFNIYWINWVRQAPGQGLEWIGNIYPSSISTNYNEKFKTRATLTVDTSTSTVYMELSSLRSEDTAVYYCARSEGTYYGGRYEGDWFGYWGQGTLVTVSS
VL: DIQMTQSPSSLSASVGDRVTITCRASQDIRNYLNWYQQKPGGTVKLLIYFTSTLHSGVPSRFSGSGSGTDYTLTISSLQPEDFATYYCQQGNTLPWTFGGGTKVEIKR
notes: hIgG4, κ
B11: humanized antibody mab14-h5 (antibody, human IgG4 S228P, kappa, V domains shown)
VH: QVQLVQSGAEVKKPGASVKVSCKASGYNFNIYWINWVRQAPGQGLEWIGNIYPSSISTNYNEKFKTRATLTVDKSTSTVYMELSSLRSEDTAVYYCARSEGTYYGGRYEGDWFGYWGQGTLVTVSS
VL: DIQMTQSPSSLSASVGDRVTITCRASQDIRNYLNWYQQKPGGTVKLLIYFTSTLHSGVPSRFSGSGSGTDYTLTISSLQPEDFATYYCQQGNTLPWTFGGGTKVEIKR
notes: hIgG4, κ
B12: humanized antibody mab14-h1 (antibody, human IgG4 S228P, kappa, V domains shown)
VH: QVQLVQSGAEVKKPGASVKVSCKASGYNFNIYWINWVRQAPGQGLEWMGNIYPSSISTNYNEKFKTRVTMTRDTSTSTVYMELSSLRSEDTAVYYCARSEGTYYGGRYEGDWFGYWGQGTLVTVSS
VL: DIQMTQSPSSLSASVGDRVTITCRASQDIRNYLNWYQQKPGKAPKLLIYFTSTLHSGVPSRFSGSGSGTDFTLTISSLQPEDFATYYCQQGNTLPWTFGGGTKVEIKR
notes: hIgG4, κ
B13: humanized antibody mab14-h6 (antibody, human IgG4 S228P, kappa, V domains shown)
VH: QVQLVQSGAEVKKPGASVKVSCKASGYNFNIYWINWVKQAPGQGLEWIGNIYPSSISTNYNEKFKTRATLTVDTSTSTVYMELSSLRSEDTAVYYCARSEGTYYGGRYEGDWFGYWGQGTLVTVSS
VL: DIQMTQSPSSLSASVGDRVTITCRASQDIRNYLNWYQQKPGGTVKLLIYFTSTLHSGVPSRFSGSGSGTDYTLTISSLQPEDFATYYCQQGNTLPWTFGGGTKVEIKR
notes: hIgG4, κ
B14: humanized antibody mab14-h7 (antibody, human IgG4 S228P, kappa, V domains shown)
VH: QVQLVQSGAEVKKPGASVKVSCKASGYNFNIYWINWVKQAPGQGLEWIGNIYPSSISTNYNEKFKTKATLTVDTSTSTVYMELSSLRSEDTAVYYCARSEGTYYGGRYEGDWFGYWGQGTLVTVSS
VL: DIQMTQSPSSLSASVGDRVTITCRASQDIRNYLNWYQQKPGGTVKLLIYFTSTLHSGVPSRFSGSGSGTDYTLTISSLQPEDFATYYCQQGNTLPWTFGGGTKVEIKR
notes: hIgG4, κ
B15: humanized antibody mab14-h13 (antibody, human IgG4 S228P, kappa, V domains shown)
VH: QVQLVQSGAEVKKPGASVKVSCKASGYNFNIYWINWVRQAPGQGLEWIGNIYPSSISTNYNEKFKTRATLTVDKSTSTVYMELSSLRSEDTAVYYCARSEGTYYGGRYEGDWFGYWGQGTLVTVSS
VL: DIQMTQSPSSLSASVGDRVTITCRASQDIRNYLNWYQQKPGGAPKLLIYFTSTLHSGVPSRFSGSGSGTDYTLTISSLQPEDFATYYCQQGNTLPWTFGGGTKVEIKR
notes: hIgG4, κ

Assays:
human Sirpα-V1-hFc = target: T1, human Sirpα-V1-hFc (human, UniProt P78324 31-373); test: blocking ELISA, competitor CD47-his
T1 construct: range 31-373; also called hSirpα (dimer); hSirpα-V1-hFc (dimer); not shown: human IgG1 Fc region at the C-terminus
Protocol: (§1) The recombinant proteins such as human Sirpα-V1-hFc/Sirpα-V1-his were diluted to concentrations of 5 μg/mL or 2 μg/mL respectively with a PBS buffer at pH 7.4, and then added into a 96-well ELISA plate (Corning, CLS3590-100EA) at a volume of 50 μL/well, and placed in an incubator at 37° C. for 2 hours. After the liquid was discarded, the wells were added with a blocking solution of 5% skimmed milk (skimmed milk powder available from Bright Dairy) diluted with PBS at 230 μL/well, and incubated in an incubator at 37° C. for 3 hours, or placed overnight at 4° C. (for 16-18 hours) for blocking. […] The plate was washed for 5 times, added with 50 μL/well of streptavidin-HRP (GenScript, M00091) or anti-his-HRP secondary antibody (GenScript, A00612) diluted at 1:1000, incubated at 37° C. for 1 hour, and then washed with PBST for 5 times. Each well was added with 50 μL of TMB (Surmodic, Cat #: TTMB-1000-01) for color development, and added with 50 μL/well of 1 M H₂SO₄ to stop the reaction. The readings on a microplate reader (MultiskanGO Thermo, Model 51119200) were subjected to data analysis by GraphPad prism 5.

human Sirpα-V1-his [1] = target: T2, human Sirpα-V1-his (human, UniProt P78324 31-373); test: ELISA
T2 construct: range 31-373; Bought (Sino Biological 11612-H08H) or expressed in-house; also called hSirpα-V1; hSirpα-V1-his

human Sirpα-V1-his [2] = target: T2, human Sirpα-V1-his; test: blocking ELISA, competitor CD47-hFc
Protocol: as §1

| Binder | IC50 (human Sirpα-V1-hFc) [nM] | EC50 (human Sirpα-V1-his [1]) [nM] | IC50 (human Sirpα-V1-his [2]) [nM] |
| --- | --- | --- | --- |
| B1 | 4.75 | 0.057 | 9.1 |
| B2 | – | 0.073 | – |
| B3 | – | 0.062 | – |
| B4 | – | 0.073 | – |
| B5 | – | 0.067 | – |
| B6 | 3.49 | 0.092 | 8.08 |
| B7 | – | 0.103 | – |
| B8 | – | 0.068 | – |
| B9 | 5.13 | 0.077 | 7.37 |
| B10 | – | 0.088 | – |
| B11 | 8.99 | 0.061 | 8.47 |
| B12 | – | 0.148 | – |
| B13 | – | 0.095 | – |
| B14 | – | 0.081 | – |
| B15 | 5.31 | 0.089 | 9.56 |
